Source: article PMC9258132, “Multi-omics profiling identifies a deregulated FUS-MAP1B axis in ALS/FTD–associated UBQLN2 mutants”

Columns and labels:
MBP-FUS-His6 S439E = MBP-FUS-His6 S439E (UniProt P35637 1-526, S439E); assay: EMSA; 5 mM MgCl2, 0.1 mg/ml yeast tRNA; 5 nM RNA, 0-10 uM protein; 20 mM NaPO4 pH 8, 150 mM NaCl, 5% glycerol, 1 mM DTT, 5 mM MgCl2, 0.5 mg/ml BSA, 0.1 mg/ml yeast tRNA, 1 U/ul RNase inhibitor, 20 min RT; 6% native PAGE in 0.5x TBE; conditions: protein: recombinant; tags: N-terminal MBP, C-terminal His6; hairpin with 3' single-stranded tail
MBP-FUS-His6 S439E, sequence (P35637 whole entry S439E): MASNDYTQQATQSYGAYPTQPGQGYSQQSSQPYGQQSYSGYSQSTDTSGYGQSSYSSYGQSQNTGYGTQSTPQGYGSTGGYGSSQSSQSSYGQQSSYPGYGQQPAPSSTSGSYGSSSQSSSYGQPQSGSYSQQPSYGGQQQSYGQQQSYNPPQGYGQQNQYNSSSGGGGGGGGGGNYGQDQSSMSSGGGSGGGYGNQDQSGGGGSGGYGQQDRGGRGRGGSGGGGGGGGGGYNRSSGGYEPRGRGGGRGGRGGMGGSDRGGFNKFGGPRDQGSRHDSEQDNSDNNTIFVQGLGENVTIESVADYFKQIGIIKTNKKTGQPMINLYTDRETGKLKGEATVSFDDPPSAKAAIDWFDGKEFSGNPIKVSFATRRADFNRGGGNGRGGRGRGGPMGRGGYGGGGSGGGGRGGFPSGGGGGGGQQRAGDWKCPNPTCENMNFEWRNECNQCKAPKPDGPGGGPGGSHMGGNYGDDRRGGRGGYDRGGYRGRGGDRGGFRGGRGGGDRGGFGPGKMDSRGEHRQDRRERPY

MBP-FUS-His6 S439A = MBP-FUS-His6 S439A (UniProt P35637 1-526, S439A); assay: as above; conditions: protein: recombinant; tags: N-terminal MBP, C-terminal His6; hairpin with 3' single-stranded tail
MBP-FUS-His6 S439A, sequence (P35637 whole entry S439A): as the sequence (P35637 whole entry S439E) above, with E439A counted along it

GGAUCUUUAACUACUCAAGAUACUGAACAUGACAUGGUA (structured_RNA) [SON pre-mRNA stem loop with downstream GGU motif]: no binding (MBP-FUS-His6 S439E); binds (MBP-FUS-His6 S439A).
